According to US12528864 (GlaxoSmithKline, dated 2026):
Read-outs that look alike come from different tables or passages of the source.

Key:
[1] = molecular target: T1, human CD96v1 on transiently transfected HEK cells (human, UniProt P40200 22-585); experiment: flow cytometry on transiently transfected HEK cells (Human CD96v1)
T1 construct: whole, on cells
T1 sequence (looked up): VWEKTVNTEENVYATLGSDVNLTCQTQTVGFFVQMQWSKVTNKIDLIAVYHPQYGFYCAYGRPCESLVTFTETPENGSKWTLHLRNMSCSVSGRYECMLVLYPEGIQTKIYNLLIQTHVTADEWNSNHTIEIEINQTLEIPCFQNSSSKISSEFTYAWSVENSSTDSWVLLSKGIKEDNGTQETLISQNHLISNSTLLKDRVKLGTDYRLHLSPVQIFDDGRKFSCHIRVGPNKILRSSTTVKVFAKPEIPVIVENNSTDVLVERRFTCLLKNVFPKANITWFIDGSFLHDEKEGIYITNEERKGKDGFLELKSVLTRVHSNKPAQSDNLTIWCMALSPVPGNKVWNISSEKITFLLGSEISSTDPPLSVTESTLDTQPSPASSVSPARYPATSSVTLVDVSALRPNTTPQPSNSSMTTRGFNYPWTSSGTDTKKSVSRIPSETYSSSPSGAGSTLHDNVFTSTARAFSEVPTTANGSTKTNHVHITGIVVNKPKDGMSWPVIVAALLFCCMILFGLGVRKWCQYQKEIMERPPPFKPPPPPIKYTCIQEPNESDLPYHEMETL

[2] = molecular target: T2, blood derived cynomolgus monkey CD96v2 on transiently transfected HEK cells (cynomolgus monkey); experiment: flow cytometry on transiently transfected HEK cells (Cyno blood derived CD96v2)
T2 construct: also called Blood derived Cyno CD96v2

[3] = molecular target: T3, cynomolgus monkey CD96, native, on primary cynomolgus monkey T cells (cynomolgus monkey, UniProt A0A2K5TWV6 22-569); experiment: flow cytometry on activated cynomolgus monkey T cells, donor 2
T3 construct: whole, on cells
T3 sequence: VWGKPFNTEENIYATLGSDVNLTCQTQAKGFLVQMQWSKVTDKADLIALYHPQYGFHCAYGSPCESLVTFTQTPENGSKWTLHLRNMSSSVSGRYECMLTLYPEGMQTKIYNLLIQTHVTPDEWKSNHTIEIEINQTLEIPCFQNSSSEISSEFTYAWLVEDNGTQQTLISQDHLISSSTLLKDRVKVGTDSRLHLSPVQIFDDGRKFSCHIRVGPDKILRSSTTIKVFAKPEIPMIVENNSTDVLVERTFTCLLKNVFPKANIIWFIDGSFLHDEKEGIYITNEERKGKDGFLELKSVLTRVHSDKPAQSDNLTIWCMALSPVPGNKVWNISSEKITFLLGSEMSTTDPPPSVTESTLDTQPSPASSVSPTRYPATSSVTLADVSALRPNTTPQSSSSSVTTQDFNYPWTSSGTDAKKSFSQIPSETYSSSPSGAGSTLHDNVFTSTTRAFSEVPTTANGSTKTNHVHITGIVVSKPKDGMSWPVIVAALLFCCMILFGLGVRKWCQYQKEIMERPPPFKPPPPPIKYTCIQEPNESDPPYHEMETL

recombinant human CD155 = molecular target: T4, recombinant human CD155 (human, UniProt P15151 21-343); experiment: surface plasmon resonance (SPR)
T4 sequence: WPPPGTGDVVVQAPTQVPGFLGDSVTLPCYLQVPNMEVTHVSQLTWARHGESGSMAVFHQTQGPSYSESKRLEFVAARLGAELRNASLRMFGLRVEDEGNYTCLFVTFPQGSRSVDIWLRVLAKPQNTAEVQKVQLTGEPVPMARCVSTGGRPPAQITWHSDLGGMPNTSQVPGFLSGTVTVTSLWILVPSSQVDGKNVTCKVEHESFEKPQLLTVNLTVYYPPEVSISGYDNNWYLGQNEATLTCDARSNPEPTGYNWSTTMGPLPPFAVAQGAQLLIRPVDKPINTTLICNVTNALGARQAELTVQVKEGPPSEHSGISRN

[4] = molecular target: T5, recombinant human nectin-1 (human, UniProt Q15223 31-334, limits assumed); experiment: surface plasmon resonance (SPR)
T5 sequence (looked up): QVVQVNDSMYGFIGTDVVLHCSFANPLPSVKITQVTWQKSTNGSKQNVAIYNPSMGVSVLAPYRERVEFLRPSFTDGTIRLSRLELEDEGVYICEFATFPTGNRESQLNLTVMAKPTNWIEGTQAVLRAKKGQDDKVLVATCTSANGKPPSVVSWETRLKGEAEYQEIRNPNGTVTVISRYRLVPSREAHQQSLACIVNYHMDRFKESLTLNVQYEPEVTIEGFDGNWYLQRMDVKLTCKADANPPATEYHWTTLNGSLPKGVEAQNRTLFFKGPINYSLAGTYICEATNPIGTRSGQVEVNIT

recombinant human TIGIT = molecular target: T6, recombinant human TIGIT (human, UniProt Q495A1 22-141); experiment: surface plasmon resonance (SPR)
T6 sequence (looked up): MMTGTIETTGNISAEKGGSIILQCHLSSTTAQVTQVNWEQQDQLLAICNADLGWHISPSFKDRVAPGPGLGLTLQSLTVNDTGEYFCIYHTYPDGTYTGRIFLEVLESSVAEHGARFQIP

recombinant human CD226 = molecular target: T7, recombinant human CD226 (human, UniProt Q15762 19-247, limits assumed); experiment: surface plasmon resonance (SPR)
T7 sequence (looked up): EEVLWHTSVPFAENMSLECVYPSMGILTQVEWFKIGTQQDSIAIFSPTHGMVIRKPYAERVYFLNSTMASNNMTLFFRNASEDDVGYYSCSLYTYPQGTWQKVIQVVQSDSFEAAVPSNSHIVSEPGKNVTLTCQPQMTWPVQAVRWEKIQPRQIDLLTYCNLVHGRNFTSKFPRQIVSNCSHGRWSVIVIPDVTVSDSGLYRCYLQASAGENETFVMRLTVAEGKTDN

[5] = molecular target: T1, human CD96v1 on transiently transfected …; experiment: flow cytometry on transiently transfected HEK cells (Human CD96v1); remark: listed apart in the source
[6] = molecular target: T1, human CD96v1 on transiently transfected …; experiment: as above; remark: listed apart in the source
[7] = molecular target: T3, cynomolgus monkey CD96, native, on …; experiment: flow cytometry on activated cynomolgus monkey CD3+ T cells; mean of 3 samples; cynomolgus monkey CD3+ T cells activated with anti-CD2/3/28 beads for 17 days; mean of 3 samples
[8] = molecular target: T8, human complement component C1q (human, UniProt P02745 23-245; P02746 28-253; P02747 29-245); experiment: SPR
T8 construct: the three subunits are from general knowledge
T8 sequence (P02745 23-245 limits assumed, chain 1 of 3): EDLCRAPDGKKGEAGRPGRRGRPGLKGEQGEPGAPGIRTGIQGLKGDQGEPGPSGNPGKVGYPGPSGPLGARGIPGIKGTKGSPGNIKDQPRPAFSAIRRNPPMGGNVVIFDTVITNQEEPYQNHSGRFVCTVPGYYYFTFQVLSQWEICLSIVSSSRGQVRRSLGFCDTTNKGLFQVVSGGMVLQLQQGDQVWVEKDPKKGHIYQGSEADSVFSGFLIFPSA
T8 sequence (P02746 28-253 limits assumed, chain 2 of 3): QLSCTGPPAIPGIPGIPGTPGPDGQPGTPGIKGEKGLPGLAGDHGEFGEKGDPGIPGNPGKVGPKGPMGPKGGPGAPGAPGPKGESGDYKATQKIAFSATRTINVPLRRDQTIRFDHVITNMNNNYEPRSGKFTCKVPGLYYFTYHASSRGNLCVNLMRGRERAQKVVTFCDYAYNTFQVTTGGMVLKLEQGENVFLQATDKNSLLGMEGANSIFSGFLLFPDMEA
T8 sequence (P02747 29-245 limits assumed, chain 3 of 3): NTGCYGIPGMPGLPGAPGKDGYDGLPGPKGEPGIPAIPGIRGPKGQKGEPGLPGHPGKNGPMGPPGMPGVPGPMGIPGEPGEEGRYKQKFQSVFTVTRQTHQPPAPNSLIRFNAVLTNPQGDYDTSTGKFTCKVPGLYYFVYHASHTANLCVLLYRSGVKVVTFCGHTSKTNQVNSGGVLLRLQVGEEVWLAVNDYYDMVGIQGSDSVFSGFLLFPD

EC50 (read off the curve) [1]: ~6 nM
EC50 (read off the curve) [2]: ~7 nM
EC50 (read off the curve) [3]: ~0.1 nM
binding result (recombinant human CD155): no binding
binding result [4]: no binding
binding result (recombinant human TIGIT): no binding
binding result (recombinant human CD226): no binding
EC50 (read off the curve) [5]: ~7 nM
EC50 (read off the curve) [6]: ~3 nM
EC50 [7]: 0.0766 nM
Kd [8]: 94.4 nM
B1: 42Y073-86F08-66 (antibody)
heavy: not shown
light: DIQLTQSPSSLSASVGDRVTITCRASQSISSYLNWYQQKPGKAPKLLIYAASSLQSGVPSRFSGSGSGTDFTLTISSLQPEDFATYYCQQVLHTITFGGGTKVEIKRTVAAPSVFIFPPSDEQLKSGTASVVCLLNNFYPREAKVQWKVDNALQSGNSQESVTEQDSKDSTYSLSSTLTLSKADYEKHKVYACEVTHQGLSSPVTKSFNRGEC
notes: also called GSK 6097608; GSK6097608
